Target: T1, full-length human MICAL1 (human) (UniProt Q8TDZ2)
T1 sequence: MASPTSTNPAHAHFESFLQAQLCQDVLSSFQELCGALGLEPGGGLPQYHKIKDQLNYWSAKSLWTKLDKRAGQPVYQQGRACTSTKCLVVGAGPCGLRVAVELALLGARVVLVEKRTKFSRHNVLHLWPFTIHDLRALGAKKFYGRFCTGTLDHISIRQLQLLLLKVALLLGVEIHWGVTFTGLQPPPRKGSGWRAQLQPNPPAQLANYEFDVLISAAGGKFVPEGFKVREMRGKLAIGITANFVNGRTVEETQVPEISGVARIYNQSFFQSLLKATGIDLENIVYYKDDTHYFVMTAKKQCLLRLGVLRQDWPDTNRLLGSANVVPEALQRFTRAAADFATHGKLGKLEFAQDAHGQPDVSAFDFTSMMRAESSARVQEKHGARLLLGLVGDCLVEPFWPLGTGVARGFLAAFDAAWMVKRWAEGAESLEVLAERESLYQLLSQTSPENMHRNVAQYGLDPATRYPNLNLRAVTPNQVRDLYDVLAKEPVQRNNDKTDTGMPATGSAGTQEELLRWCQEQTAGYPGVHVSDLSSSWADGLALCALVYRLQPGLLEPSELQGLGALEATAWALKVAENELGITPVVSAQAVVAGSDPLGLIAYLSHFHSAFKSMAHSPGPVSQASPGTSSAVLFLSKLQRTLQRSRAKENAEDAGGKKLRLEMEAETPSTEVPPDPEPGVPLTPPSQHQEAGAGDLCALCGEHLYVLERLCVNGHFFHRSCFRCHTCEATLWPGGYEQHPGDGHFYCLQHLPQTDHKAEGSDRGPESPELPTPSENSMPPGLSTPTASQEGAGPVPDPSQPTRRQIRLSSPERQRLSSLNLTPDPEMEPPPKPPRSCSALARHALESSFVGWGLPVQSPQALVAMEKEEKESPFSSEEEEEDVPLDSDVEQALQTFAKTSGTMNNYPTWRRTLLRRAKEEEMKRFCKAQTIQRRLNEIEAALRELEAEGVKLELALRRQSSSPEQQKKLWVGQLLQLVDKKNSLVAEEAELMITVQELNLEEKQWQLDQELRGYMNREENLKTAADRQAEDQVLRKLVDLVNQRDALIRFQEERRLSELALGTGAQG

human Rab8a 1-181 with the constitutively active mutation Q67L (from UniProt P61006 1-181) (domain or fragment)
fold enhancement of NADPH turnover of MICAL1 (0.5 μM) on adding Rab8a (40 μM): 4 fold
